Target: T1, Synaptotagmin Like 1 (SYTL1), on the HuProt v3.1 human proteome array (human, UniProt Q8IYJ3 1-562)
T1 construct: Synaptotagmin Like 1 (SYTL1), human; as arrayed on HuProt v3.1; source: spotted on the HuProt v3.1 human proteome array (CDI NextGen Proteomics)
T1 sequence (looked up): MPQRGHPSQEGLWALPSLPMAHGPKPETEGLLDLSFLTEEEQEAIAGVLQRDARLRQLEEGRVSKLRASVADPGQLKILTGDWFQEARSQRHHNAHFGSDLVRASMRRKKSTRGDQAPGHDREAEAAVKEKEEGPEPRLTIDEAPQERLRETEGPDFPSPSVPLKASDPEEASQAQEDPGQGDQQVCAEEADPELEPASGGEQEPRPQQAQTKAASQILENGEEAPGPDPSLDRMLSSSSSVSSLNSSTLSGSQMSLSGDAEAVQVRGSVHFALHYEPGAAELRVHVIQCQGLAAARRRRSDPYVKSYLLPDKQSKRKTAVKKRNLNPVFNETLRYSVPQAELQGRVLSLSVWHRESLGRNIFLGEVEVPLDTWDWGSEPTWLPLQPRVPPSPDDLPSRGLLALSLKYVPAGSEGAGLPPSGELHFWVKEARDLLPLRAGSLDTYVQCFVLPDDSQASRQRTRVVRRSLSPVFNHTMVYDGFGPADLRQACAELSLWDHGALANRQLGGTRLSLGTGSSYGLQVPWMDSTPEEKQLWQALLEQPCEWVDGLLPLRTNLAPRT
Experiment: peptide or protein array; HuProt v3.1 human proteome array probed with recombinant AKT2 at 1 ug/mL; GenePix analysis; only interactions with a Z-score above 6 considered
Details: both partners purified

binding result: binds
B1: recombinant AKT2 (RAC-beta serine/threonine-protein kinase) (enzyme, human, UniProt P31751 1-481, looked up)
chain: MNEVSVIKEGWLHKRGEYIKTWRPRYFLLKSDGSFIGYKERPEAPDQTLPPLNNFSVAECQLMKTERPRPNTFVIRCLQWTTVIERTFHVDSPDEREEWMRAIQMVANSLKQRAPGEDPMDYKCGSPSDSSTTEEMEVAVSKARAKVTMNDFDYLKLLGKGTFGKVILVREKATGRYYAMKILRKEVIIAKDEVAHTVTESRVLQNTRHPFLTALKYAFQTHDRLCFVMEYANGGELFFHLSRERVFTEERARFYGAEIVSALEYLHSRDVVYRDIKLENLMLDKDGHIKITDFGLCKEGISDGATMKTFCGTPEYLAPEVLEDNDYGRAVDWWGLGVVMYEMMCGRLPFYNQDHERLFELILMEEIRFPRTLSPEAKSLLAGLLKKDPKQRLGGGPSDAKEVMEHRFFLSINWQDVVQKKLLPPFKPQVTSEVDTRYFDDEFTAQSITITPPDRYDSLGLLELDQRTHFPQFSYSASIRE
notes: AKT2, RAC-beta serine/threonine-protein kinase; recombinant protein used as the probe on the HuProt v3.1 array; source: recombinant
